{
  "source": "patent US20180125921A1",
  "about": "“USE OF QBP1 PEPTIDE FOR THE INHIBITION OF MEMORY CONSOLIDATION” (CONSEJO SUPERIOR DE INVESTIGACIONES CIENTÍFICAS, priority 2015, published 2018)",
  "target": "Orb2A PLD (Drosophila), Q9VSR3",
  "test": "cell-based or functional assay",
  "data": [
    {"binder": "Ac-WKWWPGIF-NH2", "note": "[minimal active core of QBP1 (QBP1 fragment), Ac-WKWWPGIF-NH2]", "values": [
      {"measurement": "formation of M (mechanostable) conformers, AFM-SMFS", "value": 16.1, "unit": "%"}
    ]}
  ]
}
